Data reported in publication PMC3295803.

What was measured:
Assay in all cases: pressure-induced dissociation followed by light scattering; recombinant oligomers 0.2 mg/ml in 25 mM Tris pH 7.5, 25°C, 1 to 3000 bar in steps of 270 bar and back; without or with 2-mercaptoethanol
[1] = target: AgB recombinant subunit rAgB8/1 (Echinococcus granulosus)
[2] = target: AgB recombinant subunit rAgB8/2 (Echinococcus granulosus)
[3] = target: AgB recombinant subunit rAgB8/3 (Echinococcus granulosus)

AgB recombinant subunit rAgB8/1 gave a decrease of the light scattering signal after compression [1] of 60%.

Substance AgB recombinant subunit rAgB8/2 has a decrease of the light scattering signal after compression [2] of 30%.

In the case of AgB recombinant subunit rAgB8/3, the decrease of the light scattering signal after compression [3] is reported as 30%.
